The target of the test is SARS-CoV-2 spike protein (SARS-CoV-2-S) (SARS-CoV-2, UniProt P0DTC2 14-1273). Description: cell-based or functional assay.

Several values for one entry are separate records, joined by “and”; a condition that tells them apart may be missing. Equal values may be shown once.

B1: ACE2 M2-AP15-foldon (receptor)
chain: QSTIEEQAKYFLDKFNHEAEDLFYQSSLASWNYNTNITEENVQNMNNAGDKWSAFLKEQSTYAQMYPLQEIQNLTVKLQLQALQQNGSSVLSEDKSKRLNTILNTMSTIYSTGKVCNPDNPQECLLLEPGLNEIMANSLDYNERLWAWESWRSEVGKQLRPLYEEYVVLKNEMARANHYEDYGDYWRGDYEVNGVDGYDYSRGQLIEDVEHTFEEIKPLYEHLHAYVRAKLMNAYPSYISPIGCLPAHLLGDMWGRFWTNLYSLTVPFGQKPNIDVTDAMVDQAWDAQRIFKEAEKFFVSVGLPNMTQGFWEYSMLTDPGNVQKAVCHPTAWDLGKGDFRILMCTKVTMDDFLTAHHEMGHIQYDMAYAAQPFLLRNGANEGFHEAVGEIMSLSAATPKHLKSIGLLSPDFQEDNETEINFLLKQALTIVGTLPFTYMLEKWRWMVFKGEIPKDQWMKKWWEMKREIVGVVEPVPHDETYCDPASLFHVSNDYSFIRYYTRTLYQFQFQEALCQAAKHEGPLHKCDISNSTEAGQKLFNMLRLGKSEPWTLALENVVGAKNMNVRPLLNYFEPLFTWLKDQNKNSFVGWSTDWSPYADGSAPAPAPAPAPAPAPAPAPAPAPAPAPAPAPGSGYIPEAPRDGQAYVRKDGEWVLLSTFL
As to B1, the “IC50, inhibition of SARS-CoV-2 pseudotyped virus (luciferase), Caco-2 cells” value (“IC50, inhibition” below) is 0.071 µg/ml and 0.177 nM.

B2: ACE2 M1-AP15-foldon (receptor)
chain: QSTIEEQAKTFLDFFNIQAEDLFYQSSLASWNYNTNITEENVQNMNNAGDKWSAFLKEQSTLAQMYPLQEIQNLTVKLQLQALQQNGSSVLSEDKSKRLNTILNTMSTIYSTGKVCNPDNPQECLLLEPGLNEIMANSLDYNERLWAWESWRSEVGKQLRPLYEEYVVLKNEMARANHYEDYGDYWRGDYEVNGVDGYDYSRGQLIEDVEHTFEEIKPLYEHLHAYVRAKLMNAYPSYISPIGCLPAHLLGDMWGRFWTNLYSLTVPFGQKPNIDVTDAMVDQAWDAQRIFKEAEKFFVSVGLPNMTQGFWENSMLTDPGNVQKAVCHPTAWDLGKGDFRILMCTKVTMDDFLTAHHEMGHIQYDMAYAAQPFLLRNGANEGFHEAVGEIMSLSAATPKHLKSIGLLSPDFQEDNETEINFLLKQALTIVGTLPFTYMLEKWRWMVFKGEIPKDQWMKKWWEMKREIVGVVEPVPHDETYCDPASLFHVSNDYSFIRYYTRTLYQFQFQEALCQAAKHEGPLHKCDISNSTEAGQKLFNMLRLGKSEPWTLALENVVGAKNMNVRPLLNYFEPLFTWLKDQNKNSFVGWSTDWSPYADGSAPAPAPAPAPAPAPAPAPAPAPAPAPAPAPGSGYIPEAPRDGQAYVRKDGEWVLLSTFL
For B2, the “IC50, inhibition” value was 0.202 µg/ml and 0.505 nM.

B3: ACE2 M5-AP15-foldon (receptor)
chain: QSTIEEQAKYFLDKFNAEAEDLFYQSSLASWNYNTNITEENVQNMNNAGDKWSAFLKEQSTYAQMYPLQEIQNLTVKLQLQALQQNGSSVLSEDKSKRLNTILNTMSTIYSTGKVCNPDNPQECLLLEPGLNEIMANSLDYNERLWAWESWRSEVGKQLRPLYEEYVVLKNEMARANHYEDYGDYWRGDYEVNGVDGYDYSRGQLIEDVEHTFEEIKPLYEHLHAYVRAKLMNAYPSYISPIGCLPAHLLGDMWGRFWTNLYSLTVPFGQKPNIDVTDAMVDQAWDAQRIFKEAEKFFVSVGLPNMTQGFWEYSMLTDPGNVQKAVCHPTAWDLGKGDFRILMCTKVTMDDFLTAHHEMGHIQYDMAYAAQPFLLRNGANEGFHEAVGEIMSLSAATPKHLKSIGLLSPDFQEDNETEINFLLKQALTIVGTLPFTYMLEKWRWMVFKGEIPKDQWMKKWWEMKREIVGVVEPVPHDETYCDPASLFHVSNDYSFIRYYTRTLYQFQFQEALCQAAKHEGPLHKCDISNSTEAGQKLFNMLRLGKSEPWTLALENVVGAKNMNVRPLLNYFEPLFTWLKDQNKNSFVGWSTDWSPYADGSAPAPAPAPAPAPAPAPAPAPAPAPAPAPAPGSGYIPEAPRDGQAYVRKDGEWVLLSTFL
B3: the “IC50, inhibition” value is 0.052 µg/ml and 0.13 nM.

B4: ACE2 M4-AP15-foldon (receptor)
chain: QSTIEEQAKYFLDFFNIQAEDLFYQSSLASWNYNTNITEENVQNMNNAGDKWSAFLKEQSTYAQMYPLQEIQNLTVKLQLQALQQNGSSVLSEDKSKRLNTILNTMSTIYSTGKVCNPDNPQECLLLEPGLNEIMANSLDYNERLWAWESWRSEVGKQLRPLYEEYVVLKNEMARANHYEDYGDYWRGDYEVNGVDGYDYSRGQLIEDVEHTFEEIKPLYEHLHAYVRAKLMNAYPSYISPIGCLPAHLLGDMWGRFWTNLYSLTVPFGQKPNIDVTDAMVDQAWDAQRIFKEAEKFFVSVGLPNMTQGFWEYSMLTDPGNVQKAVCHPTAWDLGKGDFRILMCTKVTMDDFLTAHHEMGHIQYDMAYAAQPFLLRNGANEGFHEAVGEIMSLSAATPKHLKSIGLLSPDFQEDNETEINFLLKQALTIVGTLPFTYMLEKWRWMVFKGEIPKDQWMKKWWEMKREIVGVVEPVPHDETYCDPASLFHVSNDYSFIRYYTRTLYQFQFQEALCQAAKHEGPLHKCDISNSTEAGQKLFNMLRLGKSEPWTLALENVVGAKNMNVRPLLNYFEPLFTWLKDQNKNSFVGWSTDWSPYADGSAPAPAPAPAPAPAPAPAPAPAPAPAPAPAPGSGYIPEAPRDGQAYVRKDGEWVLLSTFL
With B4, the “IC50, inhibition” value was 0.071 µg/ml and 0.177 nM.

These data come from patent US20240035012A1 (WESTLAKE UNIVERSITY, published 2024).
